Measurements published in patent US20210355194A1 (TWIST BIOSCIENCE, published 2021).

B1: variant 5-28 (Fc fusion)
VHH: EVQLVESGGGLVQPGGSLRLSCAASGGTFSVFAMGWFRQVPGKERELVAEITAGGSTYYADSVKGRFTISADNSKNTAYLQMNSLKPEDTAVYYCAVDGPFGWGQGTLVTVSS
B2: variant 5-23 (Fc fusion)
VHH: EVQLVESGGGLVQPGGSLRLSCAASGSIFSIDVMGWFRQAPGKEREFVAAISWSGESTLYADSVKGRFTISADNSKNTAYLQMNSLKPEDTAVYYCAAFDGYSGSDWGQGTLVTVSS
B3: variant 5-66 (Fc fusion)
VHH: EVQLVESGGGLVQPGGSLRLSCAASGNTFTINVMGWFRQAPGKEREFVAAINWNGGTTLYADSVKGRFTISADNSKNTAYLQMNSLKPEDTAVYYCAAFDGYSGIDWGQGTLVTVSS
B4: variant 5-3 (Fc fusion)
VHH: EVQLVESGGGLVQPGGSLRLSCAASGSIFSIDVMGWFRQAPGKEREFVAGISWSGDSTLYADSVKGRFTISADNSKNTAYLQMNSLKPEDTAVYYCAAFDGYTGSDWGQGTLVTVSS
B5: variant 5-21 (Fc fusion)
VHH: EVQLVESGGGLVQPGGSLRLSCAASGGTFTTYHMGWFRQAPGKEREFVAHISTGGATNYADSVKGRFTISADNSKNTAYLQMNSLKPEDTAVYYCATFPAIVTDSDYDLGNDWGQGTLVTVSS
B6: variant 5-22 (Fc fusion)
VHH: EVQLVESGGGLVQPGGSLRLSCAASGFTFNVFAMGWFRQAPGKEREFVAAINWSDSRTDYADSVKGRFTISADNSKNTAYLQMNSLKPEDTAVYYCASGSDNRARELSRYEYVWGQGTLVTVSS
B7: variant 5-1 (Fc fusion)
VHH: EVQLVESGGGLVQPGGSLRLSCAASGGTFSSIGMGWFRQAPGKEREFVAAISWDGGATAYADSVKGRFTISADNSKNTAYLQMNSLKPEDTAVYYCAKEDVGKPFDWGQGTLVTVSS
notes: VHH-Fc
B8: variant 5-20 (Fc fusion)
VHH: EVQLVESGGGLVQPGGSLRLSCAASGRTIVPYTMGWFRQAPGKERELVAAISPSAFTEYADSVKGRFTISADNSKNTAYLQMNSLKPEDTAVYYCAARRWGYDWGQGTLVTVSS
notes: VHH-Fc
B9: variant 5-13 (Fc fusion)
VHH: EVQLVESGGGLVQPGGSLRLSCAASGFTFDYYTMGWFRQAPGKEREFVAAIRSSGGLFYADSVKGRFTISADNSKNTAYLQMNSLKPEDTAVYYCAAYLDGYSGSWGQGTLVTVSS
B10: variant 5-15 (Fc fusion)
VHH: EVQLVESGGGLVQPGGSLRLSCAASGFTFDGAAMGWFRQAPGKEREFVATIRWTNSTDYADSVKGRFTISADNSKNTAYLQMNSLKPEDTAVYYCARGRYGIVERWGQGTLVTVSS
B11: variant 5-16 (Fc fusion)
VHH: EVQLVESGGGLVQPGGSLRLSCAASGRTHSIYPMGWFRQAPGKERELVAAIHSGGATVYADSVKGRFTISADNSKNTAYLQMNSLKPEDTAVYYCAARRWIPPGPIWGQGTLVTVSS
B12: variant 5-17 (Fc fusion)
VHH: EVQLVESGGGLVQPGGSLRLSCAASGPTFSIYAMGWFRQAPGKEREFVAGIRWSDVYTQYADSVKGRFTISADNSKNTAYLQMNSLKPEDTAVYYCALDIDYRDWGQGTLVTVSS
B13: variant 5-39 (Fc fusion)
VHH: EVQLVESGGGLVQPGGSLRLSCAASGVTLDLYAMGWFRQAPGKEREFVAGIRWTDAYTEYADSVKGRFTISADNSKNTAYLQMNSLKPEDTAVYYCAVDIDYRDWGQGTLVTVSS
B14: variant 5-27 (Fc fusion)
VHH: EVQLVESGGGLVQPGGSLRLSCAASGRANSINWMGWFRQAPGKEREFVATITPGGNTNYADSVKGRFTISADNSKNTAYLQMNSLKPEDTAVYYCAAAAGSTWYGTLYEYDWGQGTLVTVSS

What follows are binders tested against CV S-protein construct 6 trimer TP31001F (SARS-CoV-2, UniProt P0DTC2 14-1208) (assay: SPR).

Going from B1 to B2, the Kd rises from 1 nM to 4.2 nM (4.2-fold). The first binds more tightly here.

First: B3
Second: B4
The Kd of the first is 18-fold higher: 98.9 nM for the first, 5.6 nM for the second.

B5 and B6 are within 1.5-fold of each other in Kd: 10 nM for the first, 7.2 nM for the second.

First: B7
Second: B8
The Kd of the first is 2.8-fold lower: 0.4 nM for the first, 1.1 nM for the second. The first binds more tightly here.

Going from B9 to B10, the Kd falls from 3.8 nM to 2.3 nM (1.7-fold). The second binds more tightly here.

Compared with B11, B12 is 9.9-fold higher in Kd: 1.9 nM for the first, 18.9 nM for the second. The first binds more tightly here.

Compared with B13, B14 is 2.9-fold higher in Kd: 37.6 nM for the first, 110 nM for the second. The first binds more tightly here.
